From article PMC3902906

Key:
Experiment in all cases: ITC
Conditions in all cases: ITC: 10 mM HEPES, 150 mM NaCl, pH 7.5, 25 C, 100 uM DNA into 10 uM CsoR tetramer; EMSA: same buffer, room temperature, 30 min, 6% PAGE in TBE; SEC: same buffer
[1] = biological target: CsoRSl R129A (Streptomyces lividans 1326) (UniProt D6EK73)
[2] = biological target: CsoRSl R132A (Streptomyces lividans 1326) (UniProt D6EK73)
[3] = biological target: CsoRSl R54A (Streptomyces lividans 1326) (UniProt D6EK73)

In the case of “CGGACAAATACCCCTGGTGGGTATATATGG (double strand) [csoR-EXT]”, the Kd [1] is reported as 134 nM, the Kd [2] is reported as 309 nM and the Kd [3] is reported as 2060 nM.
